Each sequence was assayed on Escherichia coli TOP10 (assay: shrunken log2 fold change of peptide-encoding DNA abundance (4.5 h post-induction vs induction); higher = less antimicrobial activity (less host growth inhibition)). Details: time post-induction: 4.5 h; library: site-saturation at positions 5, 18, 19, 20.
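Also: peptides expressed intracellularly from a pBAD plasmid library in pooled LB shake-flask culture, induced with 0.3% L-arabinose, DNA abundance read by NGS, three biological replicates, DESeq2 with apeglm shrinkage.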

Sequence	shrunken log2 fold change
RRIRLRPPRLPRPRPRPDDAPRP	-0.115
RRIRGRPPRLPRPRPRPAYCPRP	0.114
RRIRNRPPRLPRPRPRPNCYPRP	-0.618
RRIRARPPRLPRPRPRPTIKPRP	0.0966
RRIRLRPPRLPRPRPRPVTMPRP	-0.195
RRIRARPPRLPRPRPRPHVYPRP	-0.0492
RRIRLRPPRLPRPRPRPMGPPRP	0.015
RRIRHRPPRLPRPRPRPMEAPRP	-0.0935
RRIRYRPPRLPRPRPRPEPPPRP	0.49
RRIRNRPPRLPRPRPRPDWKPRP	-0.11
RRIRTRPPRLPRPRPRPNALPRP	-0.0225
RRIRSRPPRLPRPRPRPFRFPRP	-0.21
RRIRVRPPRLPRPRPRPLKRPRP	0.0621
RRIRQRPPRLPRPRPRPYVMPRP	-0.108
RRIRPRPPRLPRPRPRPAIAPRP	0.194
RRIRKRPPRLPRPRPRPDLDPRP	0.109
RRIRPRPPRLPRPRPRPFDSPRP	-0.0336
RRIRIRPPRLPRPRPRPQRAPRP	-0.249
RRIRVRPPRLPRPRPRPKTCPRP	0.021
RRIRPRPPRLPRPRPRPFHEPRP	-0.187
RRIRTRPPRLPRPRPRPYKDPRP	-0.308
RRIRTRPPRLPRPRPRPPWPPRP	0.356
RRIRMRPPRLPRPRPRPFRVPRP	0.22
RRIRPRPPRLPRPRPRPFYQPRP	-0.142
RRIRRRPPRLPRPRPRPPDPPRP	0.707

Sequence	shrunken log2 fold change
RRIRFRPPRLPRPRPRPPAKPRP	0.633
RRIRARPPRLPRPRPRPYFFPRP	-0.225
RRIRYRPPRLPRPRPRPFCQPRP	0.0155
RRIRNRPPRLPRPRPRPDARPRP	0.222
RRIRPRPPRLPRPRPRPILNPRP	-0.339
RRIRQRPPRLPRPRPRPTMWPRP	0.16
RRIRHRPPRLPRPRPRPMVDPRP	-0.222
RRIRARPPRLPRPRPRPISFPRP	0.323
RRIRQRPPRLPRPRPRPCENPRP	0.0237
RRIRHRPPRLPRPRPRPLHKPRP	-0.294
RRIRNRPPRLPRPRPRPYVAPRP	-0.931
RRIRGRPPRLPRPRPRPRKVPRP	0.741
RRIRHRPPRLPRPRPRPVRSPRP	0.172
RRIRRRPPRLPRPRPRPQQYPRP	-0.0784
RRIRWRPPRLPRPRPRPMRCPRP	0.353
RRIRHRPPRLPRPRPRPPMPPRP	0.108
RRIRMRPPRLPRPRPRPVYNPRP	-0.17
RRIRTRPPRLPRPRPRPFFEPRP	0.123
RRIRIRPPRLPRPRPRPATLPRP	-0.559
RRIRIRPPRLPRPRPRPGWTPRP	0.11
RRIRWRPPRLPRPRPRPLHSPRP	0.215
RRIRIRPPRLPRPRPRPKLDPRP	-0.106
RRIRIRPPRLPRPRPRPVWDPRP	-0.14
RRIRFRPPRLPRPRPRPCKCPRP	-0.317
RRIRHRPPRLPRPRPRPAQCPRP	0.101

Sequence	shrunken log2 fold change
RRIRKRPPRLPRPRPRPRFHPRP	0.077
RRIRRRPPRLPRPRPRPWDVPRP	-0.149
RRIRGRPPRLPRPRPRPYCGPRP	-0.349
RRIRTRPPRLPRPRPRPESCPRP	0.145
RRIRDRPPRLPRPRPRPLPFPRP	-0.398
RRIRFRPPRLPRPRPRPTNRPRP	-0.346
RRIRSRPPRLPRPRPRPFHLPRP	-0.321
RRIRWRPPRLPRPRPRPESEPRP	0.916
RRIRLRPPRLPRPRPRPKQRPRP	0.225
RRIRKRPPRLPRPRPRPVIEPRP	0.15
RRIRCRPPRLPRPRPRPVQFPRP	0.13
RRIRTRPPRLPRPRPRPFEHPRP	-0.32
RRIRERPPRLPRPRPRPKHMPRP	-0.21
RRIRCRPPRLPRPRPRPIETPRP	-0.0366
RRIRVRPPRLPRPRPRPSKWPRP	-0.283
RRIRHRPPRLPRPRPRPEDHPRP	0.0753
RRIRTRPPRLPRPRPRPQGYPRP	-0.943
RRIRTRPPRLPRPRPRPIYYPRP	-0.818
RRIRNRPPRLPRPRPRPPQLPRP	0.131
RRIRSRPPRLPRPRPRPYRDPRP	-0.128
RRIRLRPPRLPRPRPRPLWPPRP	0.302
RRIRDRPPRLPRPRPRPRGSPRP	0.255
RRIRQRPPRLPRPRPRPDGKPRP	0.0269
RRIRRRPPRLPRPRPRPEQNPRP	0.849
RRIRPRPPRLPRPRPRPKNGPRP	0.069

Sequence	shrunken log2 fold change
RRIRQRPPRLPRPRPRPPVYPRP	-0.0643
RRIRQRPPRLPRPRPRPYCVPRP	-0.00867
RRIRYRPPRLPRPRPRPKNGPRP	0.013
RRIRARPPRLPRPRPRPAMPPRP	-0.131
RRIRARPPRLPRPRPRPHACPRP	0.066
RRIRVRPPRLPRPRPRPMDVPRP	0.0265
RRIRPRPPRLPRPRPRPVHMPRP	0.215
RRIRSRPPRLPRPRPRPTLFPRP	0.206
RRIRTRPPRLPRPRPRPLLTPRP	-0.0897
RRIRHRPPRLPRPRPRPHKKPRP	-0.0741
RRIRMRPPRLPRPRPRPIMNPRP	0.284
RRIRARPPRLPRPRPRPPHTPRP	0.739
RRIRTRPPRLPRPRPRPYNWPRP	-0.143
RRIRSRPPRLPRPRPRPMIFPRP	-0.325
RRIRLRPPRLPRPRPRPTFCPRP	0.0876
RRIRKRPPRLPRPRPRPEMTPRP	2.82
RRIRCRPPRLPRPRPRPVERPRP	0.0133
RRIRERPPRLPRPRPRPRSCPRP	0.0568
RRIRTRPPRLPRPRPRPPCMPRP	0.0978
RRIRDRPPRLPRPRPRPHYYPRP	-0.236
RRIRMRPPRLPRPRPRPHRMPRP	-0.0254
RRIRFRPPRLPRPRPRPINAPRP	0.00976
RRIRKRPPRLPRPRPRPQRYPRP	0.132
RRIRFRPPRLPRPRPRPSMHPRP	-0.291
RRIRVRPPRLPRPRPRPVQHPRP	-0.0336

Sequence	shrunken log2 fold change
RRIRFRPPRLPRPRPRPYVHPRP	-1.75
RRIRKRPPRLPRPRPRPWELPRP	0.221
RRIRERPPRLPRPRPRPCMKPRP	-0.506
RRIRDRPPRLPRPRPRPWLEPRP	0.098
RRIRYRPPRLPRPRPRPHDWPRP	-0.0744
RRIRCRPPRLPRPRPRPHQGPRP	-0.0624
RRIRTRPPRLPRPRPRPFKRPRP	0.122
RRIRHRPPRLPRPRPRPNFYPRP	-0.515
RRIRVRPPRLPRPRPRPKVPPRP	-0.00247
RRIRYRPPRLPRPRPRPIDEPRP	-0.438
RRIRDRPPRLPRPRPRPNQDPRP	0.000998
RRIRKRPPRLPRPRPRPECNPRP	0.0503
RRIRMRPPRLPRPRPRPCMYPRP	0.051
RRIRFRPPRLPRPRPRPAMPPRP	0.0356
RRIRDRPPRLPRPRPRPLMDPRP	0.172
RRIRPRPPRLPRPRPRPLPCPRP	-0.407
RRIRRRPPRLPRPRPRPDVMPRP	0.195
RRIRRRPPRLPRPRPRPKAQPRP	-0.00801
RRIRQRPPRLPRPRPRPWHSPRP	-0.00968
RRIRPRPPRLPRPRPRPRPFPRP	0.248
RRIRHRPPRLPRPRPRPNYGPRP	-0.0744
RRIRERPPRLPRPRPRPCLHPRP	-0.0164
RRIRTRPPRLPRPRPRPVKEPRP	-0.0988
RRIRWRPPRLPRPRPRPHRLPRP	-0.0123
RRIRMRPPRLPRPRPRPTPNPRP	0.87

Sequence	shrunken log2 fold change
RRIRMRPPRLPRPRPRPMYKPRP	-0.472
RRIRTRPPRLPRPRPRPSTHPRP	-0.575
RRIRGRPPRLPRPRPRPDTIPRP	0.0799
RRIRLRPPRLPRPRPRPPQKPRP	0.131
RRIRFRPPRLPRPRPRPEWEPRP	0.00489
RRIRVRPPRLPRPRPRPRCRPRP	-0.0394
RRIRQRPPRLPRPRPRPYFVPRP	-0.472
RRIRYRPPRLPRPRPRPMHVPRP	0.214
RRIRERPPRLPRPRPRPVPEPRP	-0.0948
RRIRIRPPRLPRPRPRPMCMPRP	-0.216
RRIRWRPPRLPRPRPRPDLRPRP	-0.00728
RRIRHRPPRLPRPRPRPFKSPRP	0.00748
RRIRNRPPRLPRPRPRPANWPRP	0.182
RRIRTRPPRLPRPRPRPPGLPRP	1.11
RRIRRRPPRLPRPRPRPSLEPRP	0.232
RRIRARPPRLPRPRPRPSEVPRP	0.258
RRIRFRPPRLPRPRPRPKMKPRP	0.0379
RRIRPRPPRLPRPRPRPIYVPRP	-0.348
RRIRWRPPRLPRPRPRPDHEPRP	-0.0396
RRIRHRPPRLPRPRPRPESCPRP	0.0512
RRIRPRPPRLPRPRPRPCHNPRP	0.156
RRIRCRPPRLPRPRPRPILNPRP	-0.431
RRIRNRPPRLPRPRPRPDLNPRP	0.274
RRIRCRPPRLPRPRPRPHVQPRP	-0.224
RRIRKRPPRLPRPRPRPMSFPRP	0.106

Source: the supplement of paper PMC9112550, “Optimization of the antimicrobial peptide Bac7 by deep mutational scanning” (BMC Biology, 2022)
